Data: patent US20160200782A1 (MOERAE MATRIX, published 2016)

T1: NEK3(h) (human, UniProt P51956 1-506, limits assumed)
T1 sequence (looked up): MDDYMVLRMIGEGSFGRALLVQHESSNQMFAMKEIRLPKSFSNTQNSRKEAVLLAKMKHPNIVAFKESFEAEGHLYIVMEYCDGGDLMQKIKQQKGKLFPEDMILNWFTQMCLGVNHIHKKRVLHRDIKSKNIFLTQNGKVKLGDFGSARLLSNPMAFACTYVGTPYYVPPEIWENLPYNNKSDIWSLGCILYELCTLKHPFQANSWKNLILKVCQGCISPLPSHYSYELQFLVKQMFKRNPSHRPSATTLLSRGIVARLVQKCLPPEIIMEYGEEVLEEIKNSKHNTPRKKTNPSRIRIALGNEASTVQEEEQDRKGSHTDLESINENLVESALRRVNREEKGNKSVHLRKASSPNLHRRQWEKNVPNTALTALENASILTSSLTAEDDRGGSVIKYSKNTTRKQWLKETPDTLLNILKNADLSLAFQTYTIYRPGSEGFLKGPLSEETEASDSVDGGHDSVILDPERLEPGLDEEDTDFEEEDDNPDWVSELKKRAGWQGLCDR

T2: BrSK1(h) (human, UniProt Q8TDC3 1-778, limits assumed)
T2 sequence (looked up): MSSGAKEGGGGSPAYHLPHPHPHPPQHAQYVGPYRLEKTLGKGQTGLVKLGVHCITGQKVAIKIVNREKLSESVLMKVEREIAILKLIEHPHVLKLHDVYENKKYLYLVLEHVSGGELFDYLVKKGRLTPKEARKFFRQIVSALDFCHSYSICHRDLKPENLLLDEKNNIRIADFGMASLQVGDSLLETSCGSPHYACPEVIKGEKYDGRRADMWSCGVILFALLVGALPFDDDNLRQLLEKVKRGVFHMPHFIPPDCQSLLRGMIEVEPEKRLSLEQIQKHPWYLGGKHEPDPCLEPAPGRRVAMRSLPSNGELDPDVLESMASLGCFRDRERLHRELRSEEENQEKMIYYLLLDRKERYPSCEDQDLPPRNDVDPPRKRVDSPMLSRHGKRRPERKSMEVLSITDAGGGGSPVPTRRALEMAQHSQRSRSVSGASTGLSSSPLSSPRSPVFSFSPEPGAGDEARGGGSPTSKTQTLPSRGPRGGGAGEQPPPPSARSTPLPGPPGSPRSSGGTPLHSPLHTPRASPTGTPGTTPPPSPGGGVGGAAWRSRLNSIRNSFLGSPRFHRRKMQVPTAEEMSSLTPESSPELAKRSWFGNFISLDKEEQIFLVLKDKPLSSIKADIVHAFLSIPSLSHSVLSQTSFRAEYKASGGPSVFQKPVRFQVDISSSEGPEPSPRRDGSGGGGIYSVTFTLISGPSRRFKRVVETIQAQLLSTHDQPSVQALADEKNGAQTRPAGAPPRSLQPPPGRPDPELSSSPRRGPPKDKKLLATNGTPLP

T3: Ret(V804M)(h) (human, UniProt P07949 658-1114, limits assumed)
T3 sequence (looked up): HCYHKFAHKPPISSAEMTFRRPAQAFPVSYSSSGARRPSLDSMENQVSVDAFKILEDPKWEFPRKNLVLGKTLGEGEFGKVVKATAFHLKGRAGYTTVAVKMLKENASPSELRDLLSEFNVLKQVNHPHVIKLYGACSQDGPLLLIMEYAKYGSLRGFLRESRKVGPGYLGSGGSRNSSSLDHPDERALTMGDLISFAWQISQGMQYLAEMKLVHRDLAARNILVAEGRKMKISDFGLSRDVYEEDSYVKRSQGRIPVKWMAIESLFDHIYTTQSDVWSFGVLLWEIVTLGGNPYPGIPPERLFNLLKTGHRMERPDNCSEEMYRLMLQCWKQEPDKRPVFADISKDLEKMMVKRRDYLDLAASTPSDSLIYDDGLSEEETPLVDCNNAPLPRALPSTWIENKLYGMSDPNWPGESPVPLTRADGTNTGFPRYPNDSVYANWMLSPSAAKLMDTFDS

T4: TAO3(h) (human, UniProt Q9H2K8 1-315, limits assumed)
T4 sequence (looked up): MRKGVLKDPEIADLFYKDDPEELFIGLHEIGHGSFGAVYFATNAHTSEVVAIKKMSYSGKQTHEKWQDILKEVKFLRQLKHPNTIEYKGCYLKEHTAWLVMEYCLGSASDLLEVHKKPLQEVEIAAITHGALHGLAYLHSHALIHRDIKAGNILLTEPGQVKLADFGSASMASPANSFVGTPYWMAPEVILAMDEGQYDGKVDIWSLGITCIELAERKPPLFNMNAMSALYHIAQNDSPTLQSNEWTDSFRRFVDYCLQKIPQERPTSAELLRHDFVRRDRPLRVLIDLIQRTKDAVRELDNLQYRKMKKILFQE


Experiments:
Experiment in all cases: cell-based or functional assay
[1] = target: FGFR1(V561M)(h) (human, UniProt P11362 456-765, limits assumed)
Sequence of FGFR1(V561M)(h) (P11362 456-765 V561M limits assumed): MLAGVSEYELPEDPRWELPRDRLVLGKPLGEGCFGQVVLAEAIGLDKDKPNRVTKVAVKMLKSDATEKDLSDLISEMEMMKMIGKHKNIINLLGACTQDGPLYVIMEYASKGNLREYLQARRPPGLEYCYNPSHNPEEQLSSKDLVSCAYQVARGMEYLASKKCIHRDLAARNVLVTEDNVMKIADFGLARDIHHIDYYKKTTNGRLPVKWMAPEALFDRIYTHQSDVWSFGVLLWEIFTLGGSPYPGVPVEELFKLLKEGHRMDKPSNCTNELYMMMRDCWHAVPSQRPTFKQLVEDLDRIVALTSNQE

[2] = target: Rsk4(h) (human, UniProt Q9UK32 1-745, limits assumed)
Sequence of Rsk4(h) (Q9UK32 whole entry): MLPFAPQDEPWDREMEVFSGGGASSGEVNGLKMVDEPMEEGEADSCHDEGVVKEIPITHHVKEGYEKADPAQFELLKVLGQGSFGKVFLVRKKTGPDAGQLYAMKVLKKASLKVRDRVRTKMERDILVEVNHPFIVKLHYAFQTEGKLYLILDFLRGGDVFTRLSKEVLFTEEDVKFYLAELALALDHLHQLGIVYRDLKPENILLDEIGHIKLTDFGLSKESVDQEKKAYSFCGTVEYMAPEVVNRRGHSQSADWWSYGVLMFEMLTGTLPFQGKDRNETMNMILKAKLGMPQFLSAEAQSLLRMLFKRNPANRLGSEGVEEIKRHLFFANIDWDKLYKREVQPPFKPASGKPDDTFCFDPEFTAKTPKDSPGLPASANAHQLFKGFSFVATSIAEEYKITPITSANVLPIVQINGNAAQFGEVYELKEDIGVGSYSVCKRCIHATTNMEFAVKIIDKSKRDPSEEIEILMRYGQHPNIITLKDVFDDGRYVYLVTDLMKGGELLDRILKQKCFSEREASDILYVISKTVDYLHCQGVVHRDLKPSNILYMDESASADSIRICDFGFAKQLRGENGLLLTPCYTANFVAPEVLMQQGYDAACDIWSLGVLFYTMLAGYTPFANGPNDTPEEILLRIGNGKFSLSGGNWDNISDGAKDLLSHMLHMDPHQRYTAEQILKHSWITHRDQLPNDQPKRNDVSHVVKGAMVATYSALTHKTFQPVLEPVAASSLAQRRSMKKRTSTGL

[3] = target: T1, NEK3(h)
[4] = target: T2, BrSK1(h)
[5] = target: ZIPK(h) (human, UniProt O43293 1-454, limits assumed)
Sequence of ZIPK(h) (O43293 whole entry): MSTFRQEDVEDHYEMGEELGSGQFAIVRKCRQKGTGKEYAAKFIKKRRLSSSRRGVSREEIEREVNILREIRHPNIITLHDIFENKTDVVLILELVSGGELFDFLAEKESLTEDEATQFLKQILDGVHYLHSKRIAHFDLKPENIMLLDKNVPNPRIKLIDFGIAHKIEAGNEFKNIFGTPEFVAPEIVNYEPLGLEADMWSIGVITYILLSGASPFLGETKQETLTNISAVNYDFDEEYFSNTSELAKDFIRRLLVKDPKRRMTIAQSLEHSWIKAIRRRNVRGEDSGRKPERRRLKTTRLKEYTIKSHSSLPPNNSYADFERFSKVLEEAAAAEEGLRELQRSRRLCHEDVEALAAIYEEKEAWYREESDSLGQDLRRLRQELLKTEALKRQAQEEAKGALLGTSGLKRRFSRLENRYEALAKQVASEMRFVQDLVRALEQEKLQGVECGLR

[6] = target: T3, Ret(V804M)(h)
[7] = target: DAPK1(h) (human, UniProt P53355 1-289, limits assumed)
Sequence of DAPK1(h) (P53355 1-289 limits assumed): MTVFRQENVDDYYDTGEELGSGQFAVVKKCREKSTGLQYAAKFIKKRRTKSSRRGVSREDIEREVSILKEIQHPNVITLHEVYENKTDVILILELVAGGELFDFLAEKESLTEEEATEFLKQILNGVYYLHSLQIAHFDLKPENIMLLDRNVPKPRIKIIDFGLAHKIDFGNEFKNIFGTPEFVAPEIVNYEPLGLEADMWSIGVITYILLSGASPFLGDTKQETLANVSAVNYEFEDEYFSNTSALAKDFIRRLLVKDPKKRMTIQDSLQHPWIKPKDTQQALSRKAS

[8] = target: SRPK1(h) (human, UniProt Q96SB4 1-655, limits assumed)
Sequence of SRPK1(h) (Q96SB4 whole entry): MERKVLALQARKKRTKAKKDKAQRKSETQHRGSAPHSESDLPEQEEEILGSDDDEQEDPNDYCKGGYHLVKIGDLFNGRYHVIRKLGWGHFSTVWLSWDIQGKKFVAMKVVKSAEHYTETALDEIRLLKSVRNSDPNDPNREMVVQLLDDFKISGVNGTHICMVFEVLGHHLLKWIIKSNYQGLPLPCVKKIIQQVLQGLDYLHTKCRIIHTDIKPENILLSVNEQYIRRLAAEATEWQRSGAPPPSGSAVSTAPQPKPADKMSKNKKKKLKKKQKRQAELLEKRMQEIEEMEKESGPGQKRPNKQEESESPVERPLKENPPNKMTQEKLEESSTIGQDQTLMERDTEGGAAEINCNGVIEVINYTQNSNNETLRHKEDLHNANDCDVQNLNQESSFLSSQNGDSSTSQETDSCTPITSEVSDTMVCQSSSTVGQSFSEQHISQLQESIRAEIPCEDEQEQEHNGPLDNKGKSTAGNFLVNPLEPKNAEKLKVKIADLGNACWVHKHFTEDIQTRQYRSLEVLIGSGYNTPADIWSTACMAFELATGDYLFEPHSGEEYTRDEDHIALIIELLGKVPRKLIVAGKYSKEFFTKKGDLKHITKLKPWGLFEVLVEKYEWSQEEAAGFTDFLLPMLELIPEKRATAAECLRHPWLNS

[9] = target: MSK2(h) (human, UniProt O75676 1-772, limits assumed)
Sequence of MSK2(h) (O75676 whole entry): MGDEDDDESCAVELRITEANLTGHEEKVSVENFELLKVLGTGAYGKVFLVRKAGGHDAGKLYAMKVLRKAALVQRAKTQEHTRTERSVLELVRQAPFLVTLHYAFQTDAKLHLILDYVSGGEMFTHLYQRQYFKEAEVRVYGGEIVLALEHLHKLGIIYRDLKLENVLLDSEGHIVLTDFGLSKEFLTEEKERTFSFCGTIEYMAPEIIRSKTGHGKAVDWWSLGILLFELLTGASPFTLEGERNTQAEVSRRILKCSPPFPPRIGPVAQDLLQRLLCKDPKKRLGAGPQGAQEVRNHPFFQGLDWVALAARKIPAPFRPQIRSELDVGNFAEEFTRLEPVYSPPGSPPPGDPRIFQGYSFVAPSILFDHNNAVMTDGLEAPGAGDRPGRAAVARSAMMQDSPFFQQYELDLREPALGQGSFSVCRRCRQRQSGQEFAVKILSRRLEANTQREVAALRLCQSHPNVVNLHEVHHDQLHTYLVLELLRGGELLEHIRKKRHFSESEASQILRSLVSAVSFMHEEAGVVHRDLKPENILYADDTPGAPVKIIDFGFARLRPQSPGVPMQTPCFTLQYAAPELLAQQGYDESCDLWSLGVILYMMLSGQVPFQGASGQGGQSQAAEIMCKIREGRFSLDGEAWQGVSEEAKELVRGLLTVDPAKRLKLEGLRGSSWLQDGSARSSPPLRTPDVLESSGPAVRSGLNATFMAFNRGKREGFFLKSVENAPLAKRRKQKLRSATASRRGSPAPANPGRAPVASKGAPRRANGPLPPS

[10] = target: T4, TAO3(h)

Binder | % activity [1] [%] | % activity [2] [%] | % activity [3] [%] | % activity [4] [%] | % activity [5] [%] | % activity [6] [%] | % activity [7] [%] | % activity [8] [%] | % activity [9] [%] | % activity [10] [%]
FAKLAARLYRKALARQLGVAA [MMI-0300] | 74 | 90 | 92 | 67 | 28 | 95 | 46 | 90 | 56 | 77
KAFAKLAARLYRKALARQLGVAA [MMI-0400] | 74 | 91 | 85 | 76 | 13 | 87 | 36 | 96 | 52 | 67
